In general, stoichiometry N refers to a count of units in the complex or per binding partner.

Positions count from the first letter of the chain named.

The values below come from publication PMC5834258, “Selective targeting of collagen IV in the cancer cell microenvironment reduces tumor burden” (Oncotarget, 2018).

Series [1] addresses T1, Goodpasture antigen-binding protein (GPBP) (Homo sapiens, UniProt Q9Y5P4).
T1 construct: gene CERT1; FLAG-tagged recombinant GPBP multimer (77-kDa GPBP isoform); also native extracellular A427 GPBP
T1 sequence (Q9Y5P4 1-624): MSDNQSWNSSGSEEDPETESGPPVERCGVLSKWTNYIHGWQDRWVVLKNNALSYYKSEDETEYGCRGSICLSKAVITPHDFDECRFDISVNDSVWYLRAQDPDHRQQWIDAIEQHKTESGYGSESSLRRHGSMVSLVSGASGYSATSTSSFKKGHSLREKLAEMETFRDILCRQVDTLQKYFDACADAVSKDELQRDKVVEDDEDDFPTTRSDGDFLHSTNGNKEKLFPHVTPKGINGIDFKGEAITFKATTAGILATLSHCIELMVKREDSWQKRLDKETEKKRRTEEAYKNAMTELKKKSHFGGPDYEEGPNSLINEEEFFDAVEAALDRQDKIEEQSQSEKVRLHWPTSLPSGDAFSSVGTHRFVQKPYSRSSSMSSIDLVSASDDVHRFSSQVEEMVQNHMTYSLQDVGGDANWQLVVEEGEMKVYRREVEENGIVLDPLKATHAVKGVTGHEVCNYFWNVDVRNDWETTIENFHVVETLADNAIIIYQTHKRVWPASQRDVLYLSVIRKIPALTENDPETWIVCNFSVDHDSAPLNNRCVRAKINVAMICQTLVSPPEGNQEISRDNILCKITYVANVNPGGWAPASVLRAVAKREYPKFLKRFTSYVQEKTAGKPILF
In words: […] in vitro autophosphorylation of purified multimeric GPBP at […] T12; FPLC-SEC shift of GPBP oligomers (BSA control unaffected). The class given is biochemical.

Series [2] deals with T2, GPBP (FLAG-GPBP) (Homo sapiens, UniProt Q9Y5P4).
T2 construct: gene CERT1; FLAG-GPBP
T2 sequence (Q9Y5P4 1-624): T1 sequence (Q9Y5P4 1-624)
In words: […] in vitro autophosphorylation of FLAG-GPBP (Figure 9G). The class given is biochemical.

Series [3] deals with the molecule itself. Description: SEC; FPLC-SEC on Superdex 200 of FLAG-GPBP purified from Sf9 culture media; calibrators thyroglobulin, aldolase, human serum albumin. (In gel filtration, larger molecules generally elute earlier.)
Series [4] concerns the molecule itself. In words: SEC; GPBP affinity-purified from culture media of A427 and A549 cells (scFvN26 column, native elution with peptide PS132), FPLC-SEC on Superdex 200, fractions read by indirect ELISA with anti-GPBP mAb.
Series [5] concerns the molecule itself. Description: SEC; HPLC-SEC on TSKgel G4000SW of purified yeast recombinant FLAG-tagged polypeptides.

With `COc1ccc(-c2ccc(-c3cccc(C)c3)c(C)c2)c(CCC(=O)O)c1` [T12, 3-[4″-methoxy-3,2′-dimethyl-(1,1′;4′,1″)terphenyl-2″-yl]propionic acid], the “32P in vitro autophosphorylation of purified multimeric GPBP at 50 μM T12; FPLC-” value in series [1] is reported as “T12 reduced autophosphorylation of recombinant multimer but did not affect the recombinant GPBP trimer autophosphorylation activity”.
In the case of `COc1cccc2c1C(=O)c1c(O)c3c(c(O)c1C2=O)C[C@@](O)(C(=O)CO)C[C@@H]3O[C@H]1C[C@H](N)[C@H](O)[C@H](C)O1` [doxorubicin], the “32P in vitro autophosphorylation of FLAG-GPBP (Figure 9G)” value in series [2] was “it was shown the existence of GPBP species sensitive to doxorubicin (Figure 9G)”.

B1: FLAG-tagged GPBP (Goodpasture antigen-binding protein), extracellular pool from Sf9 cells (natural protein, human, UniProt Q9Y5P4 1-624, looked up)
chain: T1 sequence (Q9Y5P4 1-624)
notes: Constructs may be described in the extended methods (Supplementary Materials); also called FLAG-GPBP; extracellular GPBP
Regarding B1, in series [3], the binding result was “binds”.

B2: native extracellular GPBP isolated from the culture media of human NSCLC cells (A427, A549) (natural protein, human (endogenous in A427 and A549), UniProt Q9Y5P4 1-624, looked up)
chain: T1 sequence (Q9Y5P4 1-624)
notes: also called native extracellular A427 GPBP; mesenchymal GPBP
Regarding B2, the binding result in series [4] was “binds”.

B3: yeast recombinant FLAG-tagged GPBP-Ala264 (natural protein, human, UniProt Q9Y5P4 1-624, looked up)
chain: T1 sequence (Q9Y5P4 1-624) with E264A
notes: Mainly trimeric by SEC, with traces of higher and lower MW materials; source: yeast, purified
Consider B3, for which the “stoichiometry N” value in series [5] was 3.

B4: yeast recombinant FLAG-tagged GPBP (natural protein, human, UniProt Q9Y5P4 1-624, looked up)
chain: T1 sequence (Q9Y5P4 1-624)
notes: also called FLAG-GPBP
For B4, in series [5], the binding result is recorded as “binds”.
